{
  "source": "paper PMC6182156",
  "assay_in_all_cases": "native gel or EMSA",
  "key": {"[1]": {"target": "12 x 200 x 601 (12N200) nucleosome array, unmodified histones"}, "[2]": {"target": "12N200 nucleosome array assembled with linker histone H1.4 (UniProt P10412)"}, "[3]": {"target": "147 bp nucleosome core particle (N147), unmodified histones"}, "[4]": {"target": "H2A.Z/H3K9cme3 12N200 nucleosome array (UniProt P0C0S5)"}, "[5]": {"target": "H2A.Z/H3K9cme3 12N200 nucleosome array saturated with H1.4 (UniProt P0C0S5)"}, "[6]": {"target": "N203 mononucleosome with a stoichiometric amount of linker histone H1.4 (UniProt P10412)"}, "[7]": {"target": "symmetric 203 bp mononucleosome (N203), unmodified histones"}},
  "data": [
    {"substance": "HP1α (Heterochromatin Protein 1 alpha), wild type (from UniProt P45973 1-191) (natural protein)", "values": [
      {"measurement": "K1/2", "setting": "[1]", "result": 0.71, "unit": "µM"},
      {"measurement": "K1/2", "setting": "[2]", "result": 2.15, "unit": "µM"},
      {"measurement": "K1/2", "setting": "[3]", "result": 2.29, "unit": "µM"},
      {"measurement": "K1/2", "setting": "[4]", "result": 0.23, "unit": "µM"},
      {"measurement": "K1/2", "setting": "[5]", "result": 1.15, "unit": "µM"},
      {"measurement": "K1/2", "setting": "[6]", "result": 1.26, "unit": "µM"},
      {"measurement": "K1/2", "setting": "[7]", "result": 0.58, "unit": "µM"}
    ]}
  ]
}
